From patent US20140294898A1

Molecular target: human PD-L1 on cells (human) (UniProt Q9NZQ7)
Assay: cell-based or functional assay

human PD-L1 on cells (human), sequence (Q9NZQ7 19-290): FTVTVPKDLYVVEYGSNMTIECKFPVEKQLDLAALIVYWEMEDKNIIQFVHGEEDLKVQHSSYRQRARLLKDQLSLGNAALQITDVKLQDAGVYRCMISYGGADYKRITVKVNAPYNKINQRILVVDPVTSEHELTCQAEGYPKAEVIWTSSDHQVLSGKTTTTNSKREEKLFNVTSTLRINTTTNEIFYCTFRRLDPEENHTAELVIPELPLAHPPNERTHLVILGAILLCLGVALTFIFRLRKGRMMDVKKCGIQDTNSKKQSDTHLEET

IFNγ secretion by CMV-specific T cells (ELISA), EC50: 0.6 nM
Substance: anti-PD-L1 antibody (MDX-1105)
